Test results published in publication PMC4081072, “Structure and semi-sequence-specific RNA binding of Nrd1”.
Positions count from the first letter of the chain named.

Legend:
Experiment in all cases: fluorescence anisotropy; FA: 10 nM RNA, 50 mM sodium phosphate pH 8, 150 mM NaCl, 10 mM beta-mercaptoethanol, 20 C (protein stock in 300 mM NaCl); NMR: same buffer with 300 mM NaCl, 20
Conditions in all cases: protein: recombinant; tags: C-terminal His6; label: 5' fluorescein or TAMRA (FA); unlabeled (NMR)
Nrd1 307-491 G407A = biological target: T1, Nrd1 307-491 G407A (Saccharomyces cerevisiae, UniProt P53617 307-491, G407A)
T1 sequence: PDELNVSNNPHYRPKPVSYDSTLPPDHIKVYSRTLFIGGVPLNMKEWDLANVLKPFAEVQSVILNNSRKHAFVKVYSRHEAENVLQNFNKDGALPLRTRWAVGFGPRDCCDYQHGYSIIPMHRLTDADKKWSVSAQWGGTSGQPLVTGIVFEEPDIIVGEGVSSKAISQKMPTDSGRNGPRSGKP

Nrd1 307-491 G344A = biological target: T2, Nrd1 307-491 G344A (Saccharomyces cerevisiae, UniProt P53617 307-491, G344A)
T2 sequence: T1 sequence with G38A, A101G

Nrd1 307-491 N349A = biological target: T3, Nrd1 307-491 N349A (Saccharomyces cerevisiae, UniProt P53617 307-491, N349A)
T3 sequence: T1 sequence with N43A, A101G

Nrd1 307-491 H385A = biological target: T4, Nrd1 307-491 H385A (Saccharomyces cerevisiae, UniProt P53617 307-491, H385A)
T4 sequence: T1 sequence with H79A, A101G

Nrd1 307-491 H376A = biological target: T5, Nrd1 307-491 H376A (Saccharomyces cerevisiae, UniProt P53617 307-491, H376A)
T5 sequence: T1 sequence with H70A, A101G

Nrd1 307-491 Y382A = biological target: T6, Nrd1 307-491 Y382A (Saccharomyces cerevisiae, UniProt P53617 307-491, Y382A)
T6 sequence: T1 sequence with Y76A, A101G

Nrd1 307-491 T340A = biological target: T7, Nrd1 307-491 T340A (Saccharomyces cerevisiae, UniProt P53617 307-491, T340A)
T7 sequence: T1 sequence with T34A, A101G

Nrd1 307-491 D417A = biological target: T8, Nrd1 307-491 D417A (Saccharomyces cerevisiae, UniProt P53617 307-491, D417A)
T8 sequence: T1 sequence with A101G, D111A

B1: GUAA (ssRNA)
RNA: GUAA
With B1 as the binder, how does the Kd (Nrd1 307-491 G407A) read?
Its Kd is 13.9 ± 1.7 µM.

What about the Kd (Nrd1 307-491 G344A) of the same binder?
The Kd was 80.8 ± 2.2 µM.

And the Kd (Nrd1 307-491 N349A)?
The Kd was 10.2 ± 0.5 µM.

And the Kd (Nrd1 307-491 H385A)?
The Kd was 10.3 ± 1.7 µM.

And the Kd (Nrd1 307-491 H376A)?
Its Kd is 59.1 ± 2.6 µM.

What about the Kd (Nrd1 307-491 Y382A) of the same binder?
The Kd was 32.1 ± 1.3 µM.

And the Kd (Nrd1 307-491 T340A)?
The Kd was 153 ± 32.8 µM.

What about the Kd (Nrd1 307-491 D417A) of the same binder?
The Kd was 17.9 ± 2 µM.
